The text below walks through data of publication PMC10021052, “Novel multivalent S100A8 inhibitory peptides attenuate tumor progression and metastasis by inhibiting the TLR4-dependent pathway” (Cancer Gene Therapy, 2023).

In test [1] the target is human TLR4/MD-2 complex (human) (UniProt O00206).
Test [2] has as its system SW480 cells. In words: qPCR, S100A8-mediated IL-8 and VEGF mRNA induction in SW480 cells. In kind it is cell-based, human. The following applies: Fig. 2E. How it is done: SW480 cells were treated with S100A8 in Dulbecco’s Modified Eagle Medium/HamF12 supplemented with 0.1% bovine serum albumin for cytokine induction. Total RNA was extracted using the RNeasy Mini Plus (Qiagen, Hilden, Germany). Complementary DNA was synthesized using the PrimeScript 1st Strand Synthesis kit (Takara Bio, Japan). Quantitative PCR (qPCR) analysis was performed using the PowerUp^TM SYBR^TM Green mixture (Thermo Fisher Scientific) and the StepOnePlus Real Time PCR System (Thermo Fisher Scientific). Gene expression levels were calculated from Ct values, and the relationship between the Ct value and the logarithm of the copy number of a target gene was confirmed to be on a linear line using the corresponding isolated DNA and its serial dilutions as a standard. Thus, the gene expression levels of IL-8 and VEGF were normalized against that of β-actin in each sample. The following primers were used; β-actin, 5′-[…]-3′ and 5′-[…]-3′; IL-8, 5′-[…]-3′ and 5′-[…]-3′; VEGF, 5′-[…]-3′ and 5′-[…]-3′.
Fig. 2 Identification of S100A8 binding sites to human TLR4/MD-2. […] TLR4/MD-2 recombinant proteins were immobilized to the ELISA plate. After blocking, a full length or deletion mutant of S100A8 was added to the plate. The more detailed methods are described in Materials and Methods. […] B A series of overlapping S100A8 synthetic peptides. The TLR4/MD-2 recombinant proteins were added to each well of peptide immobilized plates. The affinity to TLR4/MD-2 was determined. Data are shown as mean ± SD. C The competitive activity was determined using ELISA. Data are shown as mean ± SD. D The TLR4/MD-2 was mixed with S100A8 with/without the indicated peptides, and immunoprecipitated using an anti-TLR4 antibody. TLR4 or S100A8 was visualized. Similar results were obtained in three independent experiments. […] Total RNAs from SW480 cells with/without treatment of the peptide candidates were extracted and qPCR analysis was performed using relevant primer sets and SYBR green. Relative expression levels were compared. […] TEXT PRINTED IN THE PICTURE: (A) Full length: TLR4/MD-2 binding: + | (A) S100A8-ΔC: TLR4/MD-2 binding: − | (A) S100A8-N: TLR4/MD-2 binding: −
Fig. 4 Improvement of competitive inhibition activity by divalent peptide3A5. A The binding capacity was measured at the indicated concentration using an ELISA-based assay. Similar results were obtained in three independent experiments. B SW480 cells were pretreated with 2.5 µM of divalent peptide3A5, and then stimulated with human S100A8 recombinant protein. After 30 min, cell lysates were subjected to western blotting using the indicated antibody. The divalent peptide#3 or peptide3A5 reduced the expression of S100A8-mediated IL-8 (C) and VEGF (D) induction. Total RNAs from SW480 cells with/without treatment of the peptide candidates were extracted and qPCR analysis was performed using relevant primer sets and SYBR green. Relative expression levels were compared. Peptide #3 suppresses S100A8-mediated IL-8(E) and VEGF (F) secretion in SW480 cells.
A general note: Real-time PCR tracks product formation cycle by cycle.

Test [3] concerns MDSCs. Put plainly: In vivo S100A8 stimulation, MDSC recruitment to lungs. Further details: species or system C57BL/6J mice. The note with it: recombinant S100A8 i.v., 4 h; *P < 0.05 vs control.
Experimental: Balb nu/nu or C57BL/6J mice were purchased from Clea Japan Inc. (Tokyo, Japan). Mice were used for experiments at 2–3 months of age. […] For in vivo S100A8 stimulation, C57BL/6J mice were intravenously injected with mammalian-derived S100A8. Four hours after the i.v. injection, mice were sacrificed, and minced mouse lungs were digested with collagenase/dispase/DNase solution. Collected cells were incubated with anti-CD11b-PE (BD Bioscience), anti-Ly6G-FITC (BD Bioscience), and anti-Ly6C-APC (BD Bioscience) antibodies, and analyzed by a flow cytometry (Cytomics FC500; Beckman Coulter, Brea, CA, USA). […] The mice were sacrificed after 16 h, and minced mouse lungs were digested with collagenase/dispase/DNase solution. The recruitment of MDSCs or PKH-26 labeled tumor cells in the lungs was determined by flow cytometry (CytoFlex; Beckman Coulter).
In test [4] the test system is p38 and p65 (NF-κB) in SW480 cells. The note with it: ref [8]; cited from earlier work. The text has this: TLR4/MD-2 dimerizes upon ligand binding. To attempt the inhibitory peptide fitted into dimerized forms, we generated a divalent peptide of peptide3A5 using Fmoc-Lys (Fmoc)-OH to form two branches in the peptide chain. […] We then examined the effect of divalent peptide3A5 on TLR4/MD-2 downstream signaling. […] Pretr ...

For test [5], the system named is tumor cells and macrophages. The following applies: ref [8]; cited from earlier work. The text has this:
S100A8 belongs to the S100s family and is characterized by two calcium-binding EF-hand motifs: a carboxyl-terminal EF-hand (high affinity to calcium), and an N-terminal EF-hand (low affinity to calcium) that are connected by a central hinge. Like most S100 proteins, S100A8 can form a heterodimer with S100A9 or can exist as a homodimer or monomer. Vogl et al. originally reported that S100A8-mediated cytokine induction was mediated via TLR4 [5].

Test [6] deals with S100A8-mediated cell migration. The note with it: ref [8]; cited from earlier work. The text has this: VEGF is another NFκB-mediated re ...
For test [7], the system named is PD-L1 in macrophages. Further details: method as in PMID 32198140. The following applies: ref [29]; cited from earlier work.

“Also recorded” adds a separate entry of the source.

Chain of human TLR4/MD-2 complex (human) (O00206 24-839, chain 1 of 2): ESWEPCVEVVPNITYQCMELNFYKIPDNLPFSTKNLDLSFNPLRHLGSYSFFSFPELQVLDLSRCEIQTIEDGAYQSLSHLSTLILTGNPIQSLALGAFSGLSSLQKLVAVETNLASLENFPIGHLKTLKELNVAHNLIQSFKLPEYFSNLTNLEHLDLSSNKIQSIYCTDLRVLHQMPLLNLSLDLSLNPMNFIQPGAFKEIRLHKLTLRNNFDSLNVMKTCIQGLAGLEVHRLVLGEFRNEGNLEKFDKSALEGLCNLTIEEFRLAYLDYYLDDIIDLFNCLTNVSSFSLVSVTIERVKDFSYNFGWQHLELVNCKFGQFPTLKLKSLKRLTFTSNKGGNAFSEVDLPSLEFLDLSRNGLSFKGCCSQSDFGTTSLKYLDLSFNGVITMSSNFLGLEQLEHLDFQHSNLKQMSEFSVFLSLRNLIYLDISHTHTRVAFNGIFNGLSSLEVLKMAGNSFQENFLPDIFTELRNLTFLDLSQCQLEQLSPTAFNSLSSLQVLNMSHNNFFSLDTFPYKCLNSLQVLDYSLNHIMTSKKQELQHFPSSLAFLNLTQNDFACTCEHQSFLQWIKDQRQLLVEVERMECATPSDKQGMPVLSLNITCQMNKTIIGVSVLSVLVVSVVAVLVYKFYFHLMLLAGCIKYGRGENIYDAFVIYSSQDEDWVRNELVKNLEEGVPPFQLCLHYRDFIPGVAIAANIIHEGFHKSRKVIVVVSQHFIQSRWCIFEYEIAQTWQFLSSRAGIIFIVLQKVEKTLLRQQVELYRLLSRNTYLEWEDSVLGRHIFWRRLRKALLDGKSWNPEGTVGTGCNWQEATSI
Chain of human TLR4/MD-2 complex (human) (Q9Y6Y9 19-160, chain 2 of 2, further chain): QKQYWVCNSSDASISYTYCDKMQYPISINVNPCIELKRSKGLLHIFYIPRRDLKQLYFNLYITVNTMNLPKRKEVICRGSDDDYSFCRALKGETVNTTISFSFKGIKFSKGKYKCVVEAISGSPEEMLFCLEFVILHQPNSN

B1: human S100A8 recombinant protein, full length (natural protein)
chain: MLTELEKALNSIIDVYHKYSLIKGNFHAVYRDDLKKLLETECPQYIRKKGADVWFKELDINTDGAVNFQEFLILVIKMGVAAHKKSHEESHKE
Turning to B1, in test [1], the S100A8-induced phosphorylation of p38 in SW480 cells pretreated with 2.5 µM divalent peptide3A5: fold inhibition worked out at 1.3 fold and the S100A8-induced phosphorylation of p65 (NF-κB) in SW480 cells pretreated with 2.5 µM divalent peptide3A5: fold inhibition came to 1.7 fold. Besides, the “IL-8 production induced by S100A8” value in test [2] is reported as “induced IL-8 production”. Further, the “recruitment of MDSCs from bone marrow to lungs” value in test [3] is reported as “increased the recruitment of MDSCs from the bone marrow to the lungs; also recorded: induces pulmonary recruitment of MDSCs from bone marrow”. Besides, the “phosphorylation of p38 MAP kinase / NF-κB activation by S100A8” value in test [4] is recorded as “induced phosphorylation of p38 MAP kinase, followed by activation of NF-κB signaling”. Further, the “induction of inflammatory cytokines/chemokines by S100A8” value in test [5] is recorded as “induced inflammatory cytokines/chemokines in a TLR4-dependent manner”. Moreover, in test [6], the “cell migration induced by S100A8” value is “induces cell migration in a TLR4-dependent manner”. In addition, the “PD-L1 expression in macrophages” value in test [7] is recorded as “upregulated PD-L1 in macrophages via a TLR4-dependent pathway”.
